Experiment [1] deals with T1, asialofetuin (UniProt P12763 19-359, limits assumed, glycoprotein; desialylated glycans, described as L-fucose bearing).
T1 construct: also called L-fucose bearing asialofetuin; model glycoprotein
T1 sequence (looked up): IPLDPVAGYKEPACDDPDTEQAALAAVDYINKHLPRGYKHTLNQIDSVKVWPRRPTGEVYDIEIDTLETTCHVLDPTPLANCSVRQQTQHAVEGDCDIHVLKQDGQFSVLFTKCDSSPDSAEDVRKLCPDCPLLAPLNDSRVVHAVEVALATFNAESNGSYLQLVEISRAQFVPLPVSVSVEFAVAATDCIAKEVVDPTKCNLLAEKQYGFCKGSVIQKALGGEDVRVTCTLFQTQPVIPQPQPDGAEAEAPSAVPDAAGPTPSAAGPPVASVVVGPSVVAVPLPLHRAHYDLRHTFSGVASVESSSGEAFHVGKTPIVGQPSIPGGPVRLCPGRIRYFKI
Kind of experiment: ITC.

In experiment [2] the target is T2, mu opioid receptor (MOR).
T2 construct: see m11 for the human receptor of the library screen
Kind of experiment: protein binding radioassay.

Experiment [3] has as its target T3, kappa opioid receptor (KOR).
T3 construct: see m12 for the human receptor of the library screen
Description: protein binding radioassay.

Experiment [4] has as its target T4, delta opioid receptor (DOR).
T4 construct: the library screen elsewhere used human clones in CHO cells
Description: protein binding radioassay.

Experiment [5] addresses T1, asialofetuin. Description: ITC, as cited in the text from Table 1; conflicts with Table 1, which prints 6.4 × 10^4 nM for OL and 4.2 × 10^4 nM for DADLE-OL. Background: In ITC the heat of successive injections is recorded.

Bridges are numbered along the chain shown (N, C = ends). Where no end group is shown, it is not given here. [ ]: non-standard residue; d: D form.

By Kd is commonly meant the concentration at which binding is half-saturated. Turning to Y[dA]GF[dL]KCFRYPNGVLACT (disulfide 7-17) [DADLE-OL II], the dissociation constant Kd in experiment [1] was 33 µM; in experiment [2], 0.123 µM; in experiment [3], 1.08 µM; in experiment [4], 0.275 µM.

B1: Odorranalectin (OL) (peptide)
peptide: YASPKCFRYPNGVLACT
modifications: disulfide 6-16
notes: Synthetic copy of the natural product; on-resin disulfide formation by I2 oxidation; also called unmodified OL; OL natural product
B1: the dissociation constant Kd in experiment [5] was 42 µM; in experiment [1], 64 µM.

YASPKCFRY[dA]GF[dL]LACT (disulfide 6-16) [DADLE-OL]: the Kd in experiment [1] is 42 µM; in experiment [2], 3.54 µM; in experiment [4] it was 0.064 µM.

On to RVFSLCNATYPYKGACP (disulfide 6-16) [Control peptide (scrambled OL sequence)], for which, in experiment [1], the dissociation constant Kd was 760 µM.

(Values after patent publication US20230295226A1 (FLORIDA ATLANTIC UNIVERSITY BOARD OF TRUSTEES, published 2023).)
